Reference: patent US20260250318A1, “COMPOSITIONS AND METHODS FOR CROSSING THE BLOOD BRAIN BARRIER” (VOYAGER THERAPEUTICS, INC., priority 2022, published 2026)
Substitutions are numbered along the chain they refer to.

Experiments:
[1] = test system: brain, spinal cord, liver and peripheral tissues; test: Individual capsid characterization in mice (qPCR transgene mRNA, viral DNA, IVIS, anti-GFP IHC); settings: for DNA (viral genome quantification), Brain, relative to the AAV9 control / mRNA (transgene expression), Brain, relative to the AAV9 control / DNA (viral genome quantification), Liver, relative to the AAV9 control / mRNA (transgene expression), Liver, relative to the AAV9 control: BALB/c mice, tail vein 5e11 VG/dose; for anti-GFP immunohistochemistry staining in brain and spinal cord: compared to AAV9 control
Method: AAV particles were generated with each of these capsid variants encapsulating a luciferase-EGFP transgene driven by a CMV/chicken beta actin promoter in a single stranded viral genome. Each capsid variant and AAV9 control were tested by intravenously administering by tail vein injection, the AAV particle formulation at 5e11 VG/dose (2.5E13 vg/kg) to three female BALB/c mice. The in-life period was 28 days and then various CNS and peripheral tissues were collected for measuring transgene mRNA, transgene protein, and viral DNA (biodistribution).
At 28 days post-injection of the AAV particles encapsulated in the TTM-001 capsid variant (AAV_TTM-001), mice were injected with luciferin and their brains were harvested for IVIS imaging.
The brains isolated from mice injected with the AAV particles encapsulated in the TTM-001 capsid variant (AAV_TTM-001) or the TTM-002 capsid variant (AAV_TTM-002) were assayed by qPCR for the presence of transgene RNA as a measure of transgene expression, and the presence of viral DNA as a measure of viral genome levels. Data were provided as fold over AAV9 (Table 12).
The brain tissues and spinal cords of the mice were also subjected to anti-GFP immunohistochemistry staining to evaluate overall CNS tropism and biodistribution.
Peripheral tissues were also isolated from the mice intravenously injected with the AAV particles encapsulated in the TTM-001 capsid variant or the TTM-002 capsid variant for analysis by qPCR and/or GFP immunohistochemical staining. Transgene mRNA levels and viral genome DNA levels were quantified in the liver by qPCR and the fold over AAV9 was calculated for each capsid variant (Table 12).

ALPL [2] = target: T1, ALPL (Homo sapiens, UniProt P05186); format: cell-based; settings: for fold increase in transduction by luciferase assay in cells expressing ALPL: relative to pCMV6 transfected cells, 24 hours post-transduction; for Luciferase Activity (RLU): Table 30, ALPL transfected cells
T1 construct: expressed in transfected cells; host or cells: HEK 293T
T1 sequence (P05186 whole entry, looked up): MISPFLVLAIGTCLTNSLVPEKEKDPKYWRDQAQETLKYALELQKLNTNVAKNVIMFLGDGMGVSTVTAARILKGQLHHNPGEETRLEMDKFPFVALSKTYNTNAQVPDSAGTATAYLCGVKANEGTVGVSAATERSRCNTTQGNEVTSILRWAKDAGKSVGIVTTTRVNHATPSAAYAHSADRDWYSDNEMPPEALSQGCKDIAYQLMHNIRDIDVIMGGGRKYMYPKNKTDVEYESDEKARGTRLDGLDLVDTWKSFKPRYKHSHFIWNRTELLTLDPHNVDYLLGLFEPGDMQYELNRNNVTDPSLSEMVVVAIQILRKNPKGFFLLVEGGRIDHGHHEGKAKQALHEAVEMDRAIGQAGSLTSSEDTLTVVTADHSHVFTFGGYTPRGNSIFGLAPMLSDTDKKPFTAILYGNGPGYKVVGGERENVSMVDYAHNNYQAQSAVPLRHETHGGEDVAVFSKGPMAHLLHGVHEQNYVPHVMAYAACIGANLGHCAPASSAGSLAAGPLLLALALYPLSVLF
Method: Briefly, a transduction assay was performed in that HEK 293T cells were transfected via calcium phosphate transfection with a plasmid expressing ALPL, an AAVR positive control, or a pCMV6 negative control (250 ng or 500 ng of plasmid). AAVR is a universal AAV entry factor involved in AAV transduction. […] At 24-hours post-transduction, GFP expression and luciferase activity were measured to quantify and observe AAV cellular transduction. […] The TTM-002, TTM-006, TTM-018, and TTM-019 capsid variants all comprised the SPH motif immediately subsequent to position 455, numbered relative to SEQ ID NO: 138 and a positive residue in one of the next three residues subsequent to the SPH motif.
To determine if the TTM-001 and TTM-002 capsid variants could bind to both the human ALPL protein (NM_000478.6, which is incorporated by reference herein) and the mouse ALPL ortholog (NM_001287172.1, which is incorporated by reference herein), HEK 293T cells were transfected via calcium phosphate transfection with a plasmid expressing human ALPL, the murine ortholog of ALPL, or a pCMV6 negative control. At 24 hours post-transfection, the HEK 293T cells expressing the ALPL receptor were transduced with an AAV particle comprising the TTM-001 capsid variant, the TTM-002 capsid variant, or an AAV9 control capsid protein, expressing a Luc2-GFP payload. At 24-hours post-transduction, luciferase activity (RLU) was measured to quantify AAV cellular transduction.

[3] = test system: N-linked galactose on HeLa cells; test: Transduction of HeLa cells after neuraminidase treatment (Luc2 activity); format: cell-based, human; settings: Neuraminidase 1000 mU/mL
ALPL [4] = target: T2, ALPL (Homo sapiens, UniProt P05186); format: cell-based; design: expressed in transfected cells; host or cells: HEK 293T; settings: viral genomes, 2 or 3 hours post-incubation, relative to pCMV6
T2 sequence (P05186 18-501): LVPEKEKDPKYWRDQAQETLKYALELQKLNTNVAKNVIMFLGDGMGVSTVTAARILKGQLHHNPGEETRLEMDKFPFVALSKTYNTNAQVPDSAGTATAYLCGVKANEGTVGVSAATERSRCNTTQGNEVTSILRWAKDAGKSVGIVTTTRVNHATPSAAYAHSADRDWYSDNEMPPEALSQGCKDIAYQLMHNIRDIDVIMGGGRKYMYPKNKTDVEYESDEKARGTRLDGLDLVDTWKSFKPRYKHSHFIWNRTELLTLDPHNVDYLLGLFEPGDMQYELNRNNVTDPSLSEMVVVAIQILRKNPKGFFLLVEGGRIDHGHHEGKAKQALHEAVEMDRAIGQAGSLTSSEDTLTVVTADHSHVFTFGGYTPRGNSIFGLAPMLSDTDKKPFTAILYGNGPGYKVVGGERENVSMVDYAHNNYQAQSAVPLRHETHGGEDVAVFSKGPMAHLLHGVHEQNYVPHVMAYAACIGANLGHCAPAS
Method: Binding and internalization of AAV capsid variants comprising the TTM-001 capsid variant, the TTM-002 capsid variant, or the AAV9 control capsid was also investigated in cells engineered to express ALPL. HEK 293T cells were transfected via calcium phosphate transfection with a plasmid expressing ALPL, an AAVR positive control, or a pCMV6 negative control. At 24 hours post-transfection, the HEK 293T cells expressing the ALPL receptor were incubated with an AAV particle comprising the TTM-001 capsid variant, the TTM-002 capsid variant, or an AAV9 control capsid protein, expressing a GFP payload. At 2 or 3-hours post-incubation, cells were washed to remove unbound AAV particles and DNA was extracted to quantify viral genomes.

Molecule: AAV9: wild-type AAV9 control capsid [reference compound]
- DNA (viral genome quantification), Brain, relative to the AAV9 control ([1]; 28 days, qPCR): 1.0 fold over AAV9
- mRNA (transgene expression), Brain, relative to the AAV9 control ([1]; 28 days, qPCR): 1.0 fold over AAV9
- DNA (viral genome quantification), Liver, relative to the AAV9 control ([1]; 28 days, qPCR, liver): 1.0 fold over AAV9
- mRNA (transgene expression), Liver, relative to the AAV9 control ([1]; 28 days, qPCR, liver): 1.0 fold over AAV9
- fold increase in transduction by luciferase assay in cells expressing ALPL (ALPL [2]): not affected
- fold change in Luc2 activity (RLU) relative to the no neuraminidase control [3]: 10.4 fold
- fold increase in binding/internalization in cells expressing ALPL (ALPL [4]): unaffected

B1: TTM-001: AAV9 capsid variant comprising SPHSKA (SEQ ID NO: 941) in loop IV (protein)
chain 1: MAADGYLPDWLEDNLSEGIREWWALKPGAPQPKANQQHQDNARGLVLPGYKYLGPGNGLDKGEPVNAADAAALEHDKAYDQQLKAGDNPYLKYNHADAEFQERLKEDTSFGGNLGRAVFQAKKRLLEPLGLVEEAAKTAPGKKRPVEQSPQEPDSSAGIGKSGAQPAKKRLNFGQTGDTESVPDPQPIGEPPAAPSGVGSLTMASGGGAPVADNNEGADGVGSSSGNWHCDSQWLGDRVITTSTRTWALPTYNNHLYKQISNSTSGGSSNDNAYFGYSTPWGYFDFNRFHCHFSPRDWQRLINNNWGFRPKRLNFKLFNIQVKEVTDNNGVKTIANNLTSTVQVFTDSDYQLPYVLGSAHEGCLPPFPADVFMIPQYGYLTLNDGSQAVGRSSFYCLEYFPSQMLRTGNNFQFSYEFENVPFHSSYAHSQSLDRLMNPLIDQYLYYLSKTINGSGSPHSKAQNQQTLKFSVAGPSNMAVQGRNYIPGPSYRQQRVSTTVTQNNNSEFAWPGASSWALNGRNSLMNPGPAMASHKEGEDRFFPLSGSLIFGKQGTGRDNVDADKVMITNEEEIKTTNPVATESYGQVATNHQSAQAQAQTGWVQNQGILPGMVWQDRDVYLQGPIWAKIPHTDGNFHPSPLMGGFGMKHPPPQILIKNTPVPADPPTAFNKDKLNSFITQYSTGQVSVEIEWELQKENSKRWNPEIQYTSNYYKSNNVEFAVNTEGVYSEPRPIGTRYLTRNL
chain 2: GSGSPHSKAQNQQT
- luciferase signal in brain (IVIS imaging) ([1]; 28 days post-injection, 5e11 VG/dose IV, vs AAV9): Robust luciferase signal
- DNA (viral genome quantification), Brain, relative to the AAV9 control ([1]; 28 days, qPCR): 32.0315 fold over AAV9
- mRNA (transgene expression), Brain, relative to the AAV9 control ([1]; 28 days, qPCR): 30.4503 fold over AAV9
- DNA (viral genome quantification), Liver, relative to the AAV9 control ([1]; 28 days, qPCR, liver): 0.4802 fold over AAV9
- mRNA (transgene expression), Liver, relative to the AAV9 control ([1]; 28 days, qPCR, liver): 1.2356 fold over AAV9
- anti-GFP immunohistochemistry staining in brain and spinal cord [1]: significantly stronger staining and payload expression
- transgene mRNA levels in the brain, fold over AAV9 ([1]; qPCR, 28 days, 5e11 VG/dose IV): 30 fold
- viral genome (DNA) concentrations in the brain, fold over AAV9 ([1]; qPCR, 28 days, 5e11 VG/dose IV): 32 fold
- viral genome DNA levels in the liver compared to AAV9 ([1]; qPCR, liver): only half as much
- Luciferase Activity (RLU) (ALPL [2]): 93,268 RLU
- fold change in Luc2 activity (RLU) relative to the no neuraminidase control [3]: 9.1 fold
- fold increase in binding/internalization in cells expressing ALPL (ALPL [4]): 3 fold

B2: TTM-002: AAV9 capsid variant comprising HDSPHK (SEQ ID NO: 2) in loop IV (protein)
chain 1: B1 chain 1 with S454H, G455D, S459K, K460S, A461G
chain 2: GHDSPHKSGQNQQT
- DNA (viral genome quantification), Brain, relative to the AAV9 control ([1]; 28 days, qPCR): 47.2810 fold over AAV9
- mRNA (transgene expression), Brain, relative to the AAV9 control ([1]; 28 days, qPCR): 66.2161 fold over AAV9
- DNA (viral genome quantification), Liver, relative to the AAV9 control ([1]; 28 days, qPCR, liver): 0.0277 fold over AAV9
- mRNA (transgene expression), Liver, relative to the AAV9 control ([1]; 28 days, qPCR, liver): 0.2016 fold over AAV9
- anti-GFP immunohistochemistry staining in brain and spinal cord [1]: significantly stronger staining and payload expression
- transgene mRNA levels in the brain, fold over AAV9 ([1]; qPCR, 28 days, 5e11 VG/dose IV): 66 fold
- transgene mRNA levels in the liver compared to AAV9 ([1]; qPCR, liver): greatly reduced
- viral genome DNA levels in the liver compared to AAV9 ([1]; qPCR, liver): greatly reduced
- transduction by immunofluorescence microscopy in cells expressing ALPL (ALPL [2]; GFP, compared to AAV9 control capsid): a significant increase in the transduction
- Luciferase Activity (RLU) (ALPL [2]): 46,182 RLU
- fold increase in transduction by luciferase assay in cells expressing ALPL (ALPL [2]): 45 fold
- fold change in Luc2 activity (RLU) relative to the no neuraminidase control [3]: 13.7 fold
- fold increase in binding/internalization in cells expressing ALPL (ALPL [4]): 6 fold
